{
  "source": "patent US20180148485A1",
  "about": "(Pieris, published 2018)",
  "binders": {"B1": {"name": "bispecific fusion polypeptide of SEQ ID NO: 47 (designed binder)", "chain": "QDSTSDLIPAPPLSKVPLQQNFQDNQFQGKWYVVGVAGNGMLREDKDPLKMRATIYELKEDKSYDVTSVAFRNKKCHYKIGTFVPGSQPGEFTLGQIKSGPGETSNLVRVVSTNYNQHAMVFFKEVRQNREWFFITLYGRTKELTSELKENFIRFSKSLGLPENHIVFPVPIDQCIDGGGGGSGGGGSQDSTSDLIPAPPLSKVPLQQNFQDNQFHGKWYVVGQAGNIRLREDKDPIKMMATIYELKEDKSYDVTMVKFDDKKCMYDIWTFVPGSQPGEFTLGKIKSFPGHTSSLVRVVSTNYNQHAMVFFKFVFQNREEFYITLYGRTKELTSELKENFIRFSKSLGLPENHIVFPVPIDQCIDGGGGGSGGGGSQDSTSDLIPAPPLSKVPLQQNFQDNQFHGKWYVVGQAGNIRLREDKDPIKMMATIYELKEDKSYDVTMVKFDDKKCMYDIWTFVPGSQPGEFTLGKIKSFPGHTSSLVRVVSTNYNQHAMVFFKFVFQNREEFYITLYGRTKELTSELKENFIRFSKSLGLPENHIVFPVPIDQCIDG"}, "B2": {"name": "CD137-specific antibody of SEQ ID NOs: 34 and 35 (antibody, human IgG4 S228P, kappa, V domains shown)", "VH": "QVQLQQWGAGLLKPSETLSLTCAVYGGSFSGYYWSWIRQSPEKGLEWIGEINHGGYVTYNPSLESRVTISVDTSKNQFSLKLSSVTAADTAVYYCARDYGPGNYDWYFDLWGRGTLVTVSS", "VL": "EIVLTQSPATLSLSPGERATLSCRASQSVSSYLAWYQQKPGQAPRLLIYDASNRATGIPARFSGSGSGTDFTLTISSLEPEDFAVYYCQQRSNWPPALTFGGGTKVEIKR", "notes": "also called antibody 20H4.9"}, "B3": {"name": "bispecific fusion polypeptide of SEQ ID NO: 46 (designed binder)", "chain": "QDSTSDLIPAPPLSKVPLQQNFQDNQFQGKWYVVGVAGNGMLREDKDPLKMRATIYELKEDKSYDVTSVAFRNKKCHYKIGTFVPGSQPGEFTLGQIKSGPGETSNLVRVVSTNYNQHAMVFFKEVRQNREWFFITLYGRTKELTSELKENFIRFSKSLGLPENHIVFPVPIDQCIDGGGGGSGGGGSQDSTSDLIPAPPLSKVPLQQNFQDNQFHGKWYVVGQAGNIRLREDKDPIKMMATIYELKEDKSYDVTMVKFDDKKCMYDIWTFVPGSQPGEFTLGKIKSFPGHTSSLVRVVSTNYNQHAMVFFKFVFQNREEFYITLYGRTKELTSELKENFIRFSKSLGLPENHIVFPVPIDQCIDG"}, "B4": {"name": "fusion polypeptide of SEQ ID NOs: 53 and 54 (bispecific antibody, human IgG2, lambda)", "chain 1": "EVQLVQSGAEVKKPGESLRISCKGSGYSFSTYWISWVRQMPGKGLEWMGKIYPGDSYTNYSPSFQGQVTISADKSISTAYLQWSSLKASDTAMYYCARGYGIFDYWGQGTLVTVSSASTKGPSVFPLAPCSRSTSESTAALGCLVKDYFPEPVTVSWNSGALTSGVHTFPAVLQSSGLYSLSSVVTVPSSNFGTQTYTCNVDHKPSNTKVDKTVERKCCVECPPCPAPPVAGPSVFLFPPKPKDTLMISRTPEVTCVVVDVSHEDPEVQFNWYVDGVEVHNAKTKPREEQFNSTFRVVSVLTVVHQDWLNGKEYKCKVSNKGLPAPIEKTISKTKGQPREPQVYTLPPSREEMTKNQVSLTCLVKGFYPSDIAVEWESNGQPENNYKTTPPMLDSDGSFFLYSKLTVDKSRWQQGNVFSCSVMHEALHNHYTQKSLSLSPGKGGGGSGGGGSGGGGSQDSTSDLIPAPPLSKVPLQQNFQDNQFQGKWYVVGRAGNVGLREDKDPPKMWATIYELKEDKSYDVTNVRFARKKCTYSIGTFVPGSQPGEFTLGQIKSEPGGTANLVRVVSTNYNQHAMVFFKEVYQNREIFFIILYGRTKELTSELKENFIRFSKSLGLPENHIVFPVPIDQCIDG", "chain 2": "SYELTQPPSVSVSPGQTASITCSGDNIGDQYAHWYQQKPGQSPVLVIYQDKNRPSGIPERFSGSNSGNTATLTISGTQAMDEADYYCATYTGFGSLAVFGGGTKLTVLGQPKAAPSVTLFPPSSEELQANKATLVCLISDFYPGAVTVAWKADSSPVKAGVETTTPSKQSNNKYAASSYLSLTPEQWKSHRSYSCQVTHEGSTVEKTVAPTECS"}, "B5": {"name": "lipocalin mutein of SEQ ID NO: 8 (designed binder)", "chain": "QDSTSDLIPAPPLSKVPLQQNFQDNQFQGKWYVVGVAGNGMLREDKDPLKMRATIYELKEDKSYDVTSVAFRNKKCHYKIGTFVPGSQPGEFTLGQIKSGPGETSNLVRVVSTNYNQHAMVFFKEVRQNREWFFITLYGRTKELTSELKENFIRFSKSLGLPENHIVFPVPIDQCIDG"}},
  "key": {"[1]": {"target": "T1, recombinant human GPC3 (R&D Systems #2119-GP-050/CF) (human, UniProt P51654 25-559)", "T1 construct": "also called Glypican-3; biotinylated human GPC3", "T1 sequence (P51654 25-559 limits assumed)": "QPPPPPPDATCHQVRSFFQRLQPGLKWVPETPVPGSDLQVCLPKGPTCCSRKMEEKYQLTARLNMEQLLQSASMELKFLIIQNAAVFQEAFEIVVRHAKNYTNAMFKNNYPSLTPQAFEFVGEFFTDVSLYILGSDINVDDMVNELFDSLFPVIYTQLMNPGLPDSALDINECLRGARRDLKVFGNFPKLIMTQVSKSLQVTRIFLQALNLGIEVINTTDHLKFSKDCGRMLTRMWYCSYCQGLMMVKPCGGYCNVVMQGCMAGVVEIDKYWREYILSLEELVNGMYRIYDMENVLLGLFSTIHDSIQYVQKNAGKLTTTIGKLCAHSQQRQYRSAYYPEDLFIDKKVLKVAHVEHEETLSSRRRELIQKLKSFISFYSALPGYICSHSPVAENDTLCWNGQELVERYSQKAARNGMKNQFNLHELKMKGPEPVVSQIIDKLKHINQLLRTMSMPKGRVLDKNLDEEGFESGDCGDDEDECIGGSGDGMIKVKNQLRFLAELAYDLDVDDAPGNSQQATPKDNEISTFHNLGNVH", "test": "SPR, biotinylated fusion captured on CAP chip, GPC3 as analyte (11-300 nM)", "description": "The data were double-referenced by subtraction of the corresponding signals measured for the control channel (loaded with Biotin CAPture reagent only) and by subtraction of buffer injections from the binding responses. Association rate constant kₐ and dissociation rate constant kd for the binding reaction were determined using Biacore T200 Evaluation Software V2.0 for data processing and kinetic fitting."}, "[2]": {"target": "T2, recombinant human CD137-Fc fusion protein (#838-4B-100, R&D Systems) (human, UniProt Q07011 24-186)", "T2 construct": "also called Fc-fusion of human CD137; not shown: Fc part of the bought fusion protein, not described", "test": "SPR, CD137-Fc captured by anti-human Fc antibody on CM5 chip, 1:1 model", "description": "Binding affinities of the CD137-binding lipocalin mutein and the bispecific polypeptides of SEQ ID NO: 46 and SEQ ID NO: 47 to recombinant human CD137-Fc fusion protein (#838-4B-100, R&D Systems) were determined by Surface Plasmon Resonance using a Biacore T200 instrument (GE Healthcare) in analogy to Example 6. Prior to the SPR affinity assay, a CM5 sensor chip was derivatized with an anti-human Fc antibody using the Human Antibody Capture Kit (GE Healthcare # BR-1008-39) according to the manufacturer's instructions.\nFour different concentrations (1000 nM, 200 nM, 40 nM and 8 nM) of the bispecific polypeptides were prepared in running buffer (10 mM HEPES, 150 mM NaCl, 0.05% v/v Surfactant P20, 3 mM EDTA, pH 7.4 (GE Healthcare)) and applied to the chip surface. Applying a flow rate of 30 μL/min, the sample contact time was 180 s and dissociation time was 600 s. All measurements were performed at 25° C. […] Prior to the protein measurements three regeneration cycles were performed for conditioning purposes. Data were evaluated with Biacore T200 Evaluation software (V 2.0). Double referencing was used and the 1:1 Binding model was used to fit the raw data."}, "[3]": {"target": "T1, recombinant human GPC3 (R&D Systems …)", "test": "ELISA, GPC3 coated, anti-NGAL-HRP detection", "text": "(§1) GPC3 was coated on a microtiter plate and the tested molecules were titrated. Bound molecules were detected via an HRP-labeled human NGAL-specific antibody as described in Example 14. The data was fitted with a 1:1 binding model with EC50 value and the maximum signal as free parameters, and a slope that was fixed to unity."}, "[4]": {"target": "T2, recombinant human CD137-Fc fusion …", "test": "dual-binding ELISA: CD137-Fc coated, fusion titrated, biotinylated GPC3 detected with Extravidin-HRP", "description": "FIG. 16: provides a representative experiment in which the ability of two bispecific fusion polypeptides of SEQ ID NO: 46 and SEQ ID NO: 47 to bind the targets, GPC3 and CD137, simultaneously was determined. Recombinant CD137-Fc fusion protein was coated on a microtiter plate, followed by a titration of the fusion protein. Subsequently, a constant concentration of biotinylated human GPC3 was added, which was detected via HRP-labeled extravidin as described in Example 16. The data was fitted with a 1:1 binding model with EC50 value and the maximum signal as free parameters, and a slope that was fixed to unity.\nThe result of the experiment is depicted in FIG. 16, together with the fit curves resulting from a 1:1 binding sigmoidal fit, where the EC50 value and the maximum signal were free parameters, and the slope was fixed to unity."}, "[5]": {"target": "T2, recombinant human CD137-Fc fusion …", "test": "ELISA, CD137-Fc coated, as described in Example 3"}, "[6]": {"target": "T2, recombinant human CD137-Fc fusion …", "test": "SPR, biotinylated CD137-Fc captured on CAP chip, 1:1 model, apparent affinity", "description": "Briefly, biotinylated CD137-Fc was captured on a sensor chip CAP and four dilutions (20, 5, 1.3 and 0.3 nM) of each tested agent (fusion protein or SEQ ID NOs: 34 and 35) were prepared in running buffer and applied to the chip surface. Applying a flow rate of 30 μL/min, the sample contact time was 180 s and dissociation time was 600 s. All measurements were otherwise performed and analyzed as described in Example 5."}, "[7]": {"target": "T2, recombinant human CD137-Fc fusion …", "test": "ELISA, CD137-Fc coated, anti-human IgG-HRP detection", "description": "The antibody of SEQ ID NOs: 34 and 35 served as the positive control. The target was dissolved in PBS (1 μg/mL) and coated overnight on microtiter plates at 4° C. The plate was washed after each incubation step with 100 μL PBS-T five times. The plates were blocked with 2% BSA (w/v) in PBS-T for 1 h at room temperature and subsequently washed. Different concentrations of the CD137-specific antibody or the fusion polypeptides were added to the wells and incubated for 1 h at room temperature, followed by a wash step. Bound fusion protein was detected after incubation for 1 h at room temperature with 1:5000 diluted mouse anti-human IgG Fab antibody conjugated to HRP (Jackson Laboratories) in PBS-TB. After an additional wash step, fluorogenic HRP substrate (QuantaBlu, Thermo) was added to each well and the fluorescence intensity was detected using a fluorescence microplate reader.\nThe result of the experiment is depicted in FIG. 3, together with the fit curves resulting from a 1:1 binding sigmoidal fit, where the EC50 value and the maximum signal were free parameters, and the slope was fixed to unity."}, "[8]": {"target": "T1, recombinant human GPC3 (R&D Systems …)", "test": "ELISA, GPC3 coated, anti-NGAL-HRP detection", "text": "as §1, with “anti-human” for “human”, “12.” for “14.”", "remark": "listed apart in the source"}},
  "note": "Like-named read-outs stand apart in the source and are kept apart here.",
  "data": [
    {"binder": "B1", "values": [
      {"measurement": "Kd", "setting": "[1]", "result": 3.5, "unit": "nM"},
      {"measurement": "Kd", "setting": "[2]", "result": 0.0006, "unit": "nM"},
      {"measurement": "EC50", "setting": "[3]", "result": 0.16, "unit": "nM"},
      {"measurement": "EC50", "setting": "[4]", "result": 7.47, "unit": "nM"},
      {"measurement": "EC50", "setting": "[5]", "result": 0.26, "unit": "nM"}
    ]},
    {"binder": "B2", "values": [
      {"measurement": "Kd", "setting": "[6]", "result": 0.092, "unit": "nM"},
      {"measurement": "EC50", "setting": "[7]", "result": 1.5, "unit": "nM"}
    ]},
    {"binder": "B3", "values": [
      {"measurement": "Kd", "setting": "[1]", "result": 4.3, "unit": "nM"},
      {"measurement": "Kd", "setting": "[2]", "result": 0.0016, "unit": "nM"},
      {"measurement": "EC50", "setting": "[3]", "result": 0.14, "unit": "nM"},
      {"measurement": "EC50", "setting": "[4]", "result": 7.3, "unit": "nM"},
      {"measurement": "EC50", "setting": "[5]", "result": 0.2, "unit": "nM"}
    ]},
    {"binder": "B4", "values": [
      {"measurement": "EC50", "setting": "[8]", "result": 0.62, "unit": "nM"}
    ]},
    {"binder": "B5", "values": [
      {"measurement": "EC50", "setting": "[3]", "result": 0.24, "unit": "nM"}
    ]}
  ]
}
